Data: publication PMC10397247

Columns and labels:
[1] = molecular target: T1, O4-bS; test: two-hybrid library CCNG1;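 further: natural log of median RNA to DNA barcode read ratio; higher means stronger binding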
T1 chain: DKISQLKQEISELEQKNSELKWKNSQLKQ

[2] = molecular target: T2, O8-bS; test: two-hybrid library CCNG1;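 further: natural log of median RNA to DNA barcode read ratio; higher means stronger binding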
T2 chain: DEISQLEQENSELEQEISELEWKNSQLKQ

[3] = molecular target: T3, O5-bS; test: two-hybrid library CCNG1;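 further: natural log of median RNA to DNA barcode read ratio; higher means stronger binding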
T3 chain: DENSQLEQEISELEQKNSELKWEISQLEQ

[4] = molecular target: T4, O9-bS; test: two-hybrid library CCNG1;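 further: natural log of median RNA to DNA barcode read ratio; higher means stronger binding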
T4 chain: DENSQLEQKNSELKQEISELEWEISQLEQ

[5] = molecular target: T5, O6-bS; test: two-hybrid library CCNG1
T5 chain: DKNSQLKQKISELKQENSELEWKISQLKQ

[6] = molecular target: T6, O7-bS; test: two-hybrid library CCNG1
T6 chain: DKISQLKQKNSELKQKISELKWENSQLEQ

[7] = molecular target: T7, APC4011-AA; test: two-hybrid library CCmax; settings: mean of both orientations
T7 chain: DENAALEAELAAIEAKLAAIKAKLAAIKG

[8] = molecular target: T8, APC3645-AA; test: two-hybrid library CCmax; settings: mean of both orientations
T8 chain: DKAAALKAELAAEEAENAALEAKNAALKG

[9] = molecular target: T9, APC6108-AA; test: two-hybrid library CCmax; settings: mean of both orientations
T9 chain: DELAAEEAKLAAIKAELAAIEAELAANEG

[10] = molecular target: T10, APC7099-AA; test: two-hybrid library CCmax; settings: mean of both orientations
T10 chain: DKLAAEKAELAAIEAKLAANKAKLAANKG

[11] = molecular target: T11, APC8910-AA; test: two-hybrid library CCmax; settings: mean of both orientations
T11 chain: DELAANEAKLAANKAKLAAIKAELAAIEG

[12] = molecular target: T12, APC4436-AA; test: two-hybrid library CCmax; settings: mean of both orientations
T12 chain: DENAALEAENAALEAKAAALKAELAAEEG

[13] = molecular target: T13, APC2237-AA; test: two-hybrid library CCmax; settings: mean of both orientations
T13 chain: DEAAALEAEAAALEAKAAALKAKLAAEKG

[14] = molecular target: T14, APC232-AA; test: two-hybrid library CCmax; settings: mean of both orientations
T14 chain: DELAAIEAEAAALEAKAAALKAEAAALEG

[15] = molecular target: T15, APC2405-AA; test: two-hybrid library CCmax; settings: mean of both orientations
T15 chain: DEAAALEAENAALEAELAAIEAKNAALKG

[16] = molecular target: T16, APC9319-AA; test: two-hybrid library CCmax; settings: mean of both orientations
T16 chain: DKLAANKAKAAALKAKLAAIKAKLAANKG

[17] = molecular target: T17, APC9096-AA; test: two-hybrid library CCmax; settings: mean of both orientations
T17 chain: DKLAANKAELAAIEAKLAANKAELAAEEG

[18] = molecular target: T18, APC1434-AA; test: two-hybrid library CCmax
T18 chain: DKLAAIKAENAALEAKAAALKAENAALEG

[19] = molecular target: T19, APC5383-AA; test: two-hybrid library CCmax; settings: mean of both orientations
T19 chain: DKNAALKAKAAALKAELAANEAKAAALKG

[20] = molecular target: T20, APC8191-AA; test: two-hybrid library CCmax; settings: mean of both orientations
T20 chain: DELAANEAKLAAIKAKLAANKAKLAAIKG

[21] = molecular target: T21, APC4264-AA; test: two-hybrid library CCmax; settings: mean of both orientations
T21 chain: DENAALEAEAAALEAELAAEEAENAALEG

[22] = molecular target: T22, 4H3015-AA; test: two-hybrid library CCmax; settings: mean of both orientations
T22 chain: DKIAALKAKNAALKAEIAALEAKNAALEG

[23] = molecular target: T23, 4H2931-AA; test: two-hybrid library CCmax; settings: mean of both orientations
T23 chain: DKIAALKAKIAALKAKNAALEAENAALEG

[24] = molecular target: T24, 4H347-AA; test: two-hybrid library CCmax; settings: mean of both orientations
T24 chain: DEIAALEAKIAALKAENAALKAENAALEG

[25] = molecular target: 4H_GCN4; test: two-hybrid library CCmax; settings: mean of both orientations
4H_GCN4, sequence (chain, as listed by the source): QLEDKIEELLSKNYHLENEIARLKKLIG

[26] = molecular target: T25, 4H452-AA; test: two-hybrid library CCmax; settings: mean of both orientations
T25 chain: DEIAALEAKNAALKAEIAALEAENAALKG

[27] = molecular target: T26, 4H2774-AA; test: two-hybrid library CCmax; settings: mean of both orientations
T26 chain: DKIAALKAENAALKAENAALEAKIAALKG

[28] = molecular target: T27, 4H3001-AA; test: two-hybrid library CCmax; settings: mean of both orientations
T27 chain: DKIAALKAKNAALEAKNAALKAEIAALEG

[29] = molecular target: T28, 4H_BCR; test: two-hybrid library CCmax; settings: mean of both orientations
T28 chain: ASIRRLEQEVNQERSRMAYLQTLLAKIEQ

[30] = molecular target: T29, 4H2592-AA; test: two-hybrid library CCmax; settings: mean of both orientations
T29 chain: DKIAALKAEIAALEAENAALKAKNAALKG

[31] = molecular target: T30, 4H3073-AA; test: two-hybrid library CCmax; settings: mean of both orientations
T30 chain: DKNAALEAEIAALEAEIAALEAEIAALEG

[32] = molecular target: T31, 4H3438-AA; test: two-hybrid library CCmax; settings: mean of both orientations
T31 chain: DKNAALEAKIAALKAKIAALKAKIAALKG

[33] = molecular target: GCN2_T; test: two-hybrid library CCmax
[34] = molecular target: T32, 4H2732-AA; test: two-hybrid library CCmax; settings: mean of both orientations
T32 chain: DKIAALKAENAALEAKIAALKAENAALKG

[35] = molecular target: T33, 4H56-AA; test: two-hybrid library CCmax; settings: mean of both orientations
T33 chain: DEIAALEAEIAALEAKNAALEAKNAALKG

[36] = molecular target: T34, 4H249-AA; test: two-hybrid library CCmax; settings: mean of both orientations
T34 chain: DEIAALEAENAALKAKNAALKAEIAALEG

[37] = molecular target: T35, 4H2466-AA; test: two-hybrid library CCmax; settings: mean of both orientations
T35 chain: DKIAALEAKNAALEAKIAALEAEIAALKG

[38] = molecular target: T36, 4H406-AA; test: two-hybrid library CCmax; settings: mean of both orientations
T36 chain: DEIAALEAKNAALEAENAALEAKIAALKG

[39] = molecular target: T37, 4H_APH; test: two-hybrid library CCmax; settings: mean of both orientations
T37 chain: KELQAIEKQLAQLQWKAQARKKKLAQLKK

[40] = molecular target: T38, 4H2343-AA; test: two-hybrid library CCmax
T38 chain: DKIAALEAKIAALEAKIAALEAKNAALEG

[41] = molecular target: T39, 4H780-bA; test: two-hybrid library CCNG1
T39 chain: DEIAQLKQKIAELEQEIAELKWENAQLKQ

[42] = molecular target: T40, 4H457-bA; test: two-hybrid library CCNG1
T40 chain: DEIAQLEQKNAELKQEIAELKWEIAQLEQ

[43] = molecular target: T41, 4H918-bA; test: two-hybrid library CCNG1
T41 chain: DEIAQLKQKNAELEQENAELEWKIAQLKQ

[44] = molecular target: T42, 4H855-bA; test: two-hybrid library CCNG1
T42 chain: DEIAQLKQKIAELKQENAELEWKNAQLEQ

[45] = molecular target: T43, 4H346-bA; test: two-hybrid library CCNG1
T43 chain: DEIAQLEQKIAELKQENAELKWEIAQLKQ

[46] = molecular target: T44, 4H575-bA; test: two-hybrid library CCNG1
T44 chain: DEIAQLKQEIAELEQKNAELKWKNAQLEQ

[47] = molecular target: T45, 4H3427-bA; test: two-hybrid library CCNG1
T45 chain: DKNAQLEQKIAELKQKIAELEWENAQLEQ

[48] = molecular target: T46, 4H754-bA; test: two-hybrid library CCNG1
T46 chain: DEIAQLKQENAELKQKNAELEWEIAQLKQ

[49] = molecular target: T47, 4H683-bA; test: two-hybrid library CCNG1
T47 chain: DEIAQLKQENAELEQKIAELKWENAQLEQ

[50] = molecular target: T48, 4H3926-bA; test: two-hybrid library CCNG1
T48 chain: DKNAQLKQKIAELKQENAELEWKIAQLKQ

[51] = molecular target: T49, 4H797-bA; test: two-hybrid library CCNG1
T49 chain: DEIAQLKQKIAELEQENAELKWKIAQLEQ

[52] = molecular target: T50, 4H3112-bA; test: two-hybrid library CCNG1
T50 chain: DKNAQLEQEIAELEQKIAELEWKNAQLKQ

[53] = molecular target: T51, 4H4073-bA; test: two-hybrid library CCNG1
T51 chain: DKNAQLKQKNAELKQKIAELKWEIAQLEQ

[54] = molecular target: T52, 4H953-bA; test: two-hybrid library CCNG1
T52 chain: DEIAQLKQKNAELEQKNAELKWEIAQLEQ

[55] = molecular target: T53, 4H968-bA; test: two-hybrid library CCNG1
T53 chain: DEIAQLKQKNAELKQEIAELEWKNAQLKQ

[56] = molecular target: T54, 4H3010-bA; test: two-hybrid library CCNG1
T54 chain: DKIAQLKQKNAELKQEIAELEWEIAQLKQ

[57] = molecular target: T55, P9mSN; test: two-hybrid library CCNG1
T55 chain: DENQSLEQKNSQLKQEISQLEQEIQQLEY

DKISQLKQEISELEQKNSELKWKNSQLKQ [O4-bS] was tested, and the interaction score [1] was -1.26, the interaction score [2] was -2.55 and the interaction score [3] was -0.823. It also gave an interaction score [4] of 0.414, an interaction score [5] of 0.143 and an interaction score [6] of -0.221.

DKLAAIKAENAALEAKAAALKAENAALEG [APC1434-AA] gave an interaction score [7] of -1.72, an interaction score [8] of -1.31 and an interaction score [9] of -1.79. It also gave an interaction score [10] of -1.28, an interaction score [11] of -1.81 and an interaction score [12] of -1.61. The interaction score [13] was -1.66, the interaction score [14] was -1.48 and the interaction score [15] was -1.36. For the same binder, the interaction score [16] was -1.75, the interaction score [17] was -1.36 and the interaction score [18] was -1.78. It also gave an interaction score [19] of -1.97, an interaction score [20] of -1.74 and an interaction score [21] of -1.64.

With DKIAALEAKIAALEAKIAALEAKNAALEG [4H2343-AA] the interaction score [22] was -1.83, the interaction score [23] was -1.61 and the interaction score [24] was -1.77. For the same binder, the interaction score [25] was -1.32, the interaction score [26] was -1.86 and the interaction score [27] was -1.54. The interaction score [28] was -1.8, the interaction score [29] was -2.04 and the interaction score [30] was -1.2. It also gave an interaction score [31] of 0.404, an interaction score [32] of 0.393 and an interaction score [33] of -2.25. The interaction score [34] was -1.84, the interaction score [35] was -1.45 and the interaction score [36] was -1.75. It also gave an interaction score [37] of -1.39, an interaction score [38] of -1.85 and an interaction score [39] of -1.88. The interaction score [40] was 1.95.

Work on DKIAQLKQKNAELKQEIAELEWEIAQLKQ [4H3010-bA] yielded an interaction score [41] of -1.79, an interaction score [42] of 1.48 and an interaction score [43] of -0.579. It also gave an interaction score [44] of -1.32, an interaction score [45] of -0.9 and an interaction score [46] of -0.532. It also gave an interaction score [47] of 0.296, an interaction score [48] of -0.693 and an interaction score [49] of 0.693. For the same binder, the interaction score [50] was 1.35, the interaction score [51] was -0.928 and the interaction score [52] was -0.267. The interaction score [53] was 0.722, the interaction score [54] was 0.368 and the interaction score [55] was -0.854. For the same binder, the interaction score [56] was 0.824.

For DENQSLEQKNSQLKQEISQLEQEIQQLEY [P9mSN], the interaction score [57] was -1.56.
